Measured values reported in the supplement of paper PMC9170038.

test system: K4 kissing-loop RNA reporter; assay: apparent KD of K4 kissing-loop reporter; higher = weaker reporter binding; conditions: Eterna round: R107; input ligand: none
Method: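 RNA-MaP round R107: designed RNA switches with theophylline, tryptophan, arginine or FMN aptamers are transcribed on-chip within common flanks. They are titrated with a labelled K4 kissing-loop RNA reporter in RNA-MaP buffer (100 mM Tris pH 7.5, 80 mM KCl, 4 mM MgCl2), without ligand or with the indicated ligand. Median apparent KD per design.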
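Note: bound reporter read as fluorescence of individual clusters on recovered sequencing chips by microscopy, with normalized cluster intensities fitted with a binding model.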

Row | Sequence | apparent KD of K4 kissing-loop reporter
1 | AACCUGACGACGAGUGAUGUUCGAUGGGAAGGAGCGCGAAGAAAUGCAGGUAGGUCGCCCUAAGAGAGUGUAACGUCAGGAUUAU [1.)] | 0.286 µM
2 | GGGAGUAGUGCGGCCGCCACUGUGAAAGAAGAAGAAUAUAGUGAUGUUAUAUAGGAAAUAAAGAAUAGGACCGGGCAUUAGAUUU [SSTRyptB.L] | 0.221 µM
3 | GGAUAGGAUAGAGGAUAUGGGCUAGGCAAGGAUAACUUGUCUAGCAAAUCCAUGAGGAGUGAUGUUCCAGAAGGCUGUCCUAUCG [MatMod 1 - Jieux - Exclusion - FMN B] | 0.162 µM
4 | GCAGAACGCAGUGAUGUUGCGAAAUCGGAAGGAGCGCGUGAAAACGCAGGUAGGUCGCCGACACAGGGAUUAUAUCCCUGUUUGC [Arginine A K4 17] | 0.182 µM
5 | CCAUCGCUAUUCGAUACCAGUCUUCGUAGGAAACUACGUCUGCAAAGGAGUGAUGUUCCAGACCCUUGGCAGCGAAUAGUGAUGG [Theophylline B K4 4] | 1.11 µM
6 | GUUACGCAUGGAAGGAGCGCGAAAAUUAAAUGUGAGUGAUGUUCACAAAUAAAUUAAAUAACGCAGGUAGGUCGCCAUGUGUAAC [Ex Arginine B K4 3] | 0.089 µM
7 | GGAGGGAUCUCGGCCGCCACUCAUAAGAAAUGGGCCUCAGAAAUAUAGUGAUGUUAUAUAAAGAAGAGGACCGGGAGAAAGAAGG [ExTryptoB.D] | 0.129 µM
8 | UGUCAUUGGUCUGAUACCAGUUGAUAAACUGGAGUGAUGUUCCAAUCGAGAUAACUCGACAACCCUUGGCAGCAGACCGAUGACU [TheoBS 15 #SwitchBubble 13 #StaticStem] | 0.176 µM
9 | AAAGGCAAAGCCCGAGUGAUGUUCGACGAUACCAGCCUCGAUAGAGGCCCUUGGCAGCGUAAAUGAUCACAAAGCCAAGGAAUAA [#OpenEnded 2 #StaticStem] | 0.268 µM
10 | GCCGUACGCAUGGAUACCAGCUAGACCGAGUGAUGUUCAGGUCUGAAUGCCGGUAUCAAGAGCCCUUGGCAGCCAUGCGUACGGC | 0.301 µM
11 | UGAUACCAGACGGCCGCCACUCCUGCAGUCAAAGACUGCUAGGAAAUAUUCGUCCAGUGAUGUUGGAGGACCGGGUCUGGUAUCU [TrypBX 10 #SwitchBubble #Palindromic #StaticStem] | 0.74 µM
12 | UGUCAUGGAAACAUGAACGUUGAUGUUCGACGAGGACCGGUACGGCCGCCACUCGAGUAAUAGUCAGUGAUGUUGACUUGUUUAA [KL-SSTryp-A form1 sub4] | 0.0691 µM
13 | AAUAAAAUCACGGCCGCCACUGAUGUUAAUAUUAGCAGUGAUGUUGCUAUGUCGUUUUUAUUUAACAGGACCGGGUGAAUAUUUA [JR_ExcTryptoB_Sub013] | 0.171 µM
14 | UUUCUACCGGGAAGGAGCGUGAAUGAUAAUGGAUAUAGUGAUGUUAUAUAUACGAACGAAUCGCAGGUAGGUCGCCCGGAUCCCU [SSArgB.V] | 0.593 µM
15 | AUUUGCUAGAAAGGAUAUAUUAGCUUGGUCACCGCGUCCGAUGGUUAAACUUCGUGAGUGAUGUUCAUAGAAGGUUCAGCCUCGA [theeternabot_exclusion_KL_FMN_B_20] | 0.146 µM
16 | CUACUGAGUGAUGUUCAACAUAAUGUCGAUACCAGCACAUUUGCCUGCCCUUGGCAGCGACGCACCAGGACCUGAGAGUACUGGU [theeternabot_sameState_KL_Theo_A_13] | 0.623 µM
17 | CCAUCGCUAUUCGAUACCAGCUCCUUAGUGAUGUUGAGGUUUUACCCACUGUAGGUGGGAAGCCCUUGGCAGCGAAUAGUGAUGG [Theophylline B K4 29] | 0.43 µM
18 | CUUCGUAAAGGCCCAGUGAUGUUGGGCACUCGAGGACCGGUACGGCCGCCACUCGCUCCCUAAGUCGCGUGCGUGGGCCACCGCC [Anala] | 0.0991 µM
19 | UGACUGGACUGAAGGAGCGCUUAACUCCUAGUGAUGUUAGGGAAACGAGACAAAGUCUCGAAGCAGGUAGGUCGCAGUCUAGUCU | 0.217 µM
20 | AAAAUAAAAGGUCACCCAGUGAUGUUGGAAGGAGCGUGCGAAAGCACAGGUAGGUCGCCAACCUAAAAGUGACCAGGGAAACCCA [#SwitchBubble 7 #K4Early] | 0.171 µM
21 | UCACUUAAAAGAAAUAGAAAUUCUAGAGAUACCAGCGACACUCUUCGCCCUUGGCAGCUCAAGUGGGACCCAGUGAUGUUGGGCG [Xeceteza] | 0.413 µM
22 | CUGACGCUGAUACGGUGGCCGGUGGUCGUGCGAGGACCGGUACGGCCGCCACUCGCAUGAGUGAUGUUCAUGUGUCGUCGUCGUC [#05 K4 Tryptophan A Exclusion] | 0.114 µM

same assay, conditions: Eterna round: R107; input ligand: theophylline 20 uM

Row | Sequence | apparent KD of K4 kissing-loop reporter
23 | UGGAGUUGACGAAAAGUCAACUCCCGAGAAGGAGCGGACGAAAGUCCAGGUAGGUCGCUCGCUACCAGUGAUGUUGGUACUUUAA | 0.219 µM
24 | AUCGUUGUCUGAGGAUAUCGGUUAACUGUAGUGAUGUUACAGAAAAUUCAUAUUAUAUUUUCUAUUCGAGAAGGCAGACUACGUA [JR_Nu3_ExcFMNB_Sub019] | 0.145 µM
25 | CGUUGGAGUGAUGUUCCAGGUUGUACGGAUACCAGCCAAGCCAGCGGCCCUUGGCAGCCGACUAUUGCAGUGAUGUUGUGAUGCC [Same State Theophylline A GF 3] | 0.772 µM
26 | AUUCAGAUCUGAAGGAGCGCGUUAAGUCAAUGCUUCAUAGAGCAGUGAUGUUGCUCUGAAACGCAGGUAGGUCGCAGAUCUGACC [Arg B SS t17] | 0.288 µM
27 | AUCACAGUGAUGUUGUGAUAUGAUUCAGAUACCAGACUAGUGCUAGUCCCUUGGCAGCUGAACUCAGCAGCACCACUAGCACUCU [Theo A Ex t6] | 0.166 µM
28 | GCUAGCAUGGCAGGAUAUAGCUAUAGGAGUGAUGUUCCUUGGUAGGUGAGUGAUGUUCACUACCAACUAGAAGGGCCAUGCUAGC | 0.121 µM
29 | AGGUCACCAGGAAGGAGCGCCCUGACAGGUUGCUGCCGUGGGCAGUGAUGUUGCUCAGUCCGGCAGGUAGGUCGCCUGGUGACCU | 0.125 µM
30 | ACACGUGUGGCAGGAUAUCGGGCUGUGGAUCGGCUGGUUACUUAUUCUCGACCAGUGAUGUUGGUACGAGAAGGGCUACCCAGAA [Cetebera] | 0.135 µM
31 | AAGCAGUCACUCGAAACCAUCGAAGAUGGACGAGGACCGGUACGGCCGCCACUCGGAGUGAUGUUCCGAAGACUGCAAAAUAAAA | 0.434 µM
32 | UGCAGUGAUGUUGCUAUUUGUCUUGAUUAACGAGGACCGGUACGGCCGCCACUCGAUUUCUCUCUAAUCGGGUAUGUUGUUUAGU [#20 K4 Tryptophan A Exclusion] | 0.187 µM
33 | UAAGUAAGGGAUGAUACCAGAGAGUGAUGUUCUCAAGCGCUAUAGGAUAGCCUUAUCCACCUCCCUUGGCAGCAUACCCACUGGG [theeternabot_exclusion_KL_Theo_B_13] | 0.346 µM
34 | UCCUGCAAUCAGCCACGAAAGUGGAUGGAUACCAGAGUCGAAAGACUCCCUUGGCAGCCAGUGAUGUUGGAAGCAGGUAAAUAAA | 0.343 µM
35 | UGUGUUGUUUUGAUGUUUGGUGUUGCAUGGCAGGAUAUCGUAGAGGCGAGAAGGGCUUUUGUGCGGUAUGAGUGAUGUUUGUAGG [iihymullin] | 0.466 µM
36 | CGAGUGAUGUUCGUUCGUUUAUUUUUUUGACAGGAUAUGCGGAAACGCAGAAGGGUCACCUUUGAGUUAAAAGAAUUUACGUUAU [Ex FMN A 25] | 0.465 µM
37 | AGAUGUCCCUGGGAUACCAGUCGGAGUCUCAGGGCUCGGAGUGAUGUUCUGGGAUGUUUCGGCCCUUGGCAGCCCUGGGACUCCC [#2 Exclusion - Theophylline B Attempt #26 (HarryS)] | 0.671 µM
38 | AGUCCACUCUAAAGAGUGGACCUAAGGGAUACCAGUGAUGUUGGUCACCCUUGGCAGCCCUCUGUCAUCGAUAAAGAUGGCAGCA | 0.149 µM
39 | GGAUAGGAUAGAGGAUAUGGUAUAUGCAAGAAUAACUUAUCGUGUAAAUCCAUAGGGAGUGAUGUUCCAGAAGGCUGUCCUAUCG [MatMod 11 - Jieux - Exclusion - FMN B] | 0.324 µM

Row | Sequence | apparent KD of K4 kissing-loop reporter
40 | GCUAUGGUUGGAAGGAGCGUUUAAUUACUAAUAAGAGUGAUGUUCGAUAGUAGGUAAUUGUAGCAGGUAGGUCGCCAACUAUAGC [KL-Arg B25] | 0.222 µM
41 | CGAGUGAUGUUCGUUCGUUUAUUUCGUUGACAGGAUAUGCGGAAACGCAGAAGGGUCACCUUUGAGUUAACGGAAUUAACGUUAU [Ex FMN A 28] | 0.49 µM
42 | UGUCAUUGGUCGGCCGCCACUAGACGGACAUAAGUCUGUCAAUAAAGAGUGAUGUUCUUAAAUAAUAGGACCGGGACCGAUGACU [TrypBS 28 #SwitchBubble #StaticStem] | 0.503 µM
43 | UGUACCGAGUCAGGAUAUGGCGUCGAAAGACGAAAUGGAGUGAUGUUCCUUAUCUGCGAAAGCAGUCCAGAAGGGACUUGGUACU [FmnBS 27 #SwitchBubble #StaticStem #DoubleMagnetSystem] | 0.123 µM
44 | GGAUAGGACAGAGGAUAUGGUAGUGAUGUUACCAAACUGGUUAUCAAUGUUAGAAAAUUGACAAAUCCAGAAGGCUGUCCUAUCG [KL-XFMN-B14] | 0.0548 µM
45 | AACCUGACGACGAGUGAUGUUCGAUGGGAAGGAGCGCGAAGAAAUGCAGGUAGGUCGCCCUAAGAGAGUGUAACGUCAGGAUUAU [1.)] | 0.348 µM
46 | GGGAGUAGUGCGGCCGCCACUGUGAAAGAAGAAGAAUAUAGUGAUGUUAUAUAGGAAAUAAAGAAUAGGACCGGGCAUUAGAUUU [SSTRyptB.L] | 0.186 µM
47 | GGAUAGGAUAGAGGAUAUGGGCUAGGCAAGGAUAACUUGUCUAGCAAAUCCAUGAGGAGUGAUGUUCCAGAAGGCUGUCCUAUCG [MatMod 1 - Jieux - Exclusion - FMN B] | 0.148 µM
48 | GCAGAACGCAGUGAUGUUGCGAAAUCGGAAGGAGCGCGUGAAAACGCAGGUAGGUCGCCGACACAGGGAUUAUAUCCCUGUUUGC [Arginine A K4 17] | 0.206 µM
49 | CCAUCGCUAUUCGAUACCAGUCUUCGUAGGAAACUACGUCUGCAAAGGAGUGAUGUUCCAGACCCUUGGCAGCGAAUAGUGAUGG [Theophylline B K4 4] | 0.444 µM
50 | GUUACGCAUGGAAGGAGCGCGAAAAUUAAAUGUGAGUGAUGUUCACAAAUAAAUUAAAUAACGCAGGUAGGUCGCCAUGUGUAAC [Ex Arginine B K4 3] | 0.0807 µM
51 | GGAGGGAUCUCGGCCGCCACUCAUAAGAAAUGGGCCUCAGAAAUAUAGUGAUGUUAUAUAAAGAAGAGGACCGGGAGAAAGAAGG [ExTryptoB.D] | 0.203 µM
52 | UGUCAUUGGUCUGAUACCAGUUGAUAAACUGGAGUGAUGUUCCAAUCGAGAUAACUCGACAACCCUUGGCAGCAGACCGAUGACU [TheoBS 15 #SwitchBubble 13 #StaticStem] | 0.128 µM
53 | AAAGGCAAAGCCCGAGUGAUGUUCGACGAUACCAGCCUCGAUAGAGGCCCUUGGCAGCGUAAAUGAUCACAAAGCCAAGGAAUAA [#OpenEnded 2 #StaticStem] | 0.248 µM
54 | GCCGUACGCAUGGAUACCAGCUAGACCGAGUGAUGUUCAGGUCUGAAUGCCGGUAUCAAGAGCCCUUGGCAGCCAUGCGUACGGC | 0.329 µM
55 | UGAUACCAGACGGCCGCCACUCCUGCAGUCAAAGACUGCUAGGAAAUAUUCGUCCAGUGAUGUUGGAGGACCGGGUCUGGUAUCU [TrypBX 10 #SwitchBubble #Palindromic #StaticStem] | 0.633 µM
